Several values for one entry are separate records, joined by “and”; a condition that tells them apart may be missing. Equal entries are not always repeated.
Columns and labels:
[1] = Thermal denaturation followed by CD spectroscopy; assay type: physicochemical; details: for Tm: apoprotein 0.2 mg/mL, 10 mM potassium phosphate pH 7.8, 50 mM (NH4)2SO4; for ΔH (enthalpy of unfolding) / ΔS (entropy of unfolding): apoprotein, single-stage model; for ΔG^298: calculated from ΔH and ΔS at 298 K
Description: The effect of substitutions of conserved amino acids in the active site of ALKBH3 on its thermal stability was studied by circular dichroism (CD) spectroscopy combined with thermal denaturation of the samples. The CD data were collected for wt and mutant apoproteins at various temperatures (25–70 °C) with 2–5 °C intervals (Supplementary Figure S3). […] Melting profiles expressed as a temperature dependence of the mean residue ellipticity at 218 nm were largely sigmodal, indicating the presence of a single transition between the folded and unfolded state (Figure 6B).
The melting profiles were analyzed quantitatively using characteristic wavelengths between 208 and 222 nm by a single-stage model.
Thermal stability experiments were performed under the same conditions. The spectra were collected from 25 to 70 °C, with the samples incubated at each temperature for 3–5 min before measuring. After that, each sample was gradually cooled to 25 °C and the spectrum was recorded again to observe possible refolding of the protein. Melting curves were corrected for background, transformed to the mean residue ellipticity units, and smoothed using the Savitzky–Golay method with a polynomial order of 3. Values of [θ] at wavelengths of 208 and 218 nm as a function of temperature were used to determine the thermodynamics of folding. The values of Tm and ΔH were determined by non-linear regression analysis with the help of Equations (6)–(8):(6) θt=θu+θf−θuK/1+K, (7) K=exp(ΔH/1.987·tt/Tm−1)=exp(−ΔH−t·ΔS/1.987·t), (8) ΔG=−RTlnK where θt—the mean residue ellipticity (in deg·cm^2·dmol^−1) at any given temperature t; θu—the mean residue ellipticity of the unfolded protein; θf—the mean residue ellipticity of the folded protein; K—the constant of unfolding; Tm—the melting temperature; ΔH—the enthalpy of unfolding, ΔS—the entropy of unfolding.
Figure 6 Thermal stability of wt and mutant ALKBH3 proteins measured by CD spectroscopy. (A) Spectra of wt ALKBH3 between 180 and 270 nm at 25 °C (light blue), after heating to 70 °C (dark blue), and cooling again to 25 °C (dashed light blue). (B) Representative melting profiles of wt (blue), Y143F (yellow), Y143A (green), L177A (red), and H191A ALKBH3 (violet) derived from the θ values at 218 nm. The unfolding transitions were monitored 0.2 mg/mL of the apoprotein in 10 mM Potassium Phosphate (pH 7.8) and 50 mM (NH4)2SO4.

m3C substrate = assay: Equilibrium fluorescence titration with methylated DNA; assay type: binding; details: for Kd: 1 µM apoprotein, 2 mM EDTA, 25 °C, read-out: Dissociation constant Kd, m3C substrate; for weakening of contacts with the DNA substrate relative to wt: ratio of Kd for m3C substrate
Text: To investigate the impact of selected mutations on ALKBH3’s ability to bind its cofactor, co-substrate, and methylated DNA, the fluorescent titration method was employed. It is well-established that enzyme–ligand binding typically leads to a protein conformational change, which in turn can alter the fluorescence intensity of tryptophan and tyrosine residues within the protein sequence. […] In this study, transitional metals (Fe(II), Ni(II), and Co(II)), 2OG, and the m3C substrate served as titrants. Protein fluorescence quenching was measured after the addition of an excess of the ligand to 1 µM of enzyme (Supplementary Figure S2). To determine the equilibrium dissociation constant’s Kd values, the resulting titration curves were analyzed using a non-linear regression algorithm (see Section 4.3 of “Materials and Methods” for details). […] As indicated by the data presented in Table 2, the stability of the wt ALKBH3 apoenzyme’s affinity to various ligands and damaged DNA generally corresponds to the stability of such complexes for AlkB and ALKBH2 enzymes. […] The binding of Ni(II) and Co(II) ions of similar radii was weakened by approximately two-fold. […] This behavior is more characteristic of the bacterial homolog AlkB rather than human ALKBH2 [7].
The affinity of the active site of ALKBH3 for methylated DNA was studied using the m3C substrate without fluorescent labels (see Section 4). […] The replacement of key amino acids leads to an approximate 1.4-fold weakening of contacts with the DNA substrate for the Y143F mutant, 2.3-fold for Y143A, 2-fold for L177A, and 1.5-fold for H191A. Therefore, the removal of the bulky side chain of Tyr143 dramatically affects the ability of ALKBH3 to bind damaged DNA, while withdrawal of its OH group only slightly weakens protein–DNA interactions.
The intrinsic tryptophan fluorescence quenching was monitored at the maximum of emission (345 nm, in most cases) using an excitation wavelength of 280 nm, and 5 nm slits. An amount of 2 mM of (NH4)2Fe(SO4)2·6H2O, 2 mM of NiSO4×7H2O, 2 mM of CoSO4·7H2O, 2 mM of 2OG, or 100 µM of m3C substrate was titrated into 1 µM of apoprotein (a free enzyme with no metal or 2OG added) in the presence of 50 mM of HEPES-KOH (pH 7.8), 50 mM of KCl, and 10 mM of MgCl2. When titrating with DNA, the buffer was supplemented with 2 mM of EDTA. The dissociation constant Kd for a model of one-step binding (E + L ↔ EL) was determined using Equations (2)–(5) and a non-linear regression algorithm in the OriginPro 8.1 software (OriginLab Corp., Northampton, MA, USA):(2) Kd=E[L]/[EL] (3) F=f0+f1E+f2[EL] (4) e0=E+[EL] (5) l0=L+[EL] where F is the observed fluorescence intensity at any given ligand (L) concentration; f0 is the background fluorescence; f1 and f2 are partial fluorescence intensities of the free enzyme (E) and enzyme–ligand complex (EL), respectively; e0 and l0 are total concentrations of the enzyme and ligand.
Figure S2. Equilibrium binding of the wild-type and mutant ALKBH3 proteins to transition metals, 2OG, or m3C-containing DNA. The quenching of the enzyme ﬂuorescence is shown as a function of Fe(II) (A), Ni(II) (B), Co(II) (C), 2OG ( D), and single-stranded m3C substrate (E). The protein concentration was 1 µM. In the course of titration by Fe(II), a sodium ascorbate (1mM) was added to keep the metal in a reduced state. Experimental data points were ﬁtted to a single-site binding mode l (see “Materials and Methods”). Each trace represents the average of three technical […]
(1 picture or pasted object on this page, not shown here)

Molecule | Kd (m3C substrate) [µM] | Tm [1] | Tm ([1]; listed as wt) [°C] | ΔH (enthalpy of unfolding) [1] [kcal/mol] | ΔS (entropy of unfolding) [1] | ΔH (enthalpy of unfolding) ([1]; listed as wt) [kcal/mol] | ΔG^298 [1] [kcal/mol] | weakening of contacts with the DNA substrate relative to wt (m3C substrate) [fold] | reduction in melting temperature relative to wt [1] [°C] | increase in ΔH relative to wt [1] [kcal/mol] | increase in ΔS relative to wt [1] [cal/mol·K]
Y143A ALKBH3: ALKBH3 mutant, Tyr143 replaced with Ala (protein, UniProt Q96Q83 1-286, looked up, variant Y143A) Alpha-ketoglutarate-dependent …: MEEKRRRARVQGAWAAPVKSQAIAQPATTAKSHLHQKPGQTWKNKEHHLSDREFVFKEPQQVVRRAPEPRVIDREGVYEISLSPTGVSRVCLYPGFVDVKEADWILEQLCQDVPWKQRTGIREDITYQQPRLTAWYGELPYTASRITMEPNPHWHPVLRTLKNRIEENTGHTFNSLLCNLYRNEKDSVDWHSDDEPSLGRCPIIASLSFGATRTFEMRKKPPPEENGDYTYVERVKIPLDHGTLLIMEGATQADWQHRVPKEYHSREPRVNLTFRTVYPDPRGAPW | 6.3 ± 0.6 | 44.2 ± 0.2 °C | – | 54 ± 2 | 170 ± 0.6 cal/mol·K | – | 3.3 ± 0.1 | ~2.3 | – | – | –
H191A ALKBH3: ALKBH3 mutant, His191 replaced with Ala (protein, UniProt Q96Q83 1-286, looked up, variant H191A) Alpha-ketoglutarate-dependent …: MEEKRRRARVQGAWAAPVKSQAIAQPATTAKSHLHQKPGQTWKNKEHHLSDREFVFKEPQQVVRRAPEPRVIDREGVYEISLSPTGVSRVCLYPGFVDVKEADWILEQLCQDVPWKQRTGIREDITYQQPRLTAWYGELPYTYSRITMEPNPHWHPVLRTLKNRIEENTGHTFNSLLCNLYRNEKDSVDWASDDEPSLGRCPIIASLSFGATRTFEMRKKPPPEENGDYTYVERVKIPLDHGTLLIMEGATQADWQHRVPKEYHSREPRVNLTFRTVYPDPRGAPW | 4.3 ± 0.3 | 42.7 ± 0.1 °C | – | 127 ± 9 | 403 cal/mol·K and 403 ± 0.4 cal/mol·K | – | 6.9 ± 0.5 | ~1.5 | – | – | –
L177A ALKBH3: ALKBH3 mutant, Leu177 replaced with Ala (protein, UniProt Q96Q83 1-286, looked up, variant L177A) Alpha-ketoglutarate-dependent …: MEEKRRRARVQGAWAAPVKSQAIAQPATTAKSHLHQKPGQTWKNKEHHLSDREFVFKEPQQVVRRAPEPRVIDREGVYEISLSPTGVSRVCLYPGFVDVKEADWILEQLCQDVPWKQRTGIREDITYQQPRLTAWYGELPYTYSRITMEPNPHWHPVLRTLKNRIEENTGHTFNSLACNLYRNEKDSVDWHSDDEPSLGRCPIIASLSFGATRTFEMRKKPPPEENGDYTYVERVKIPLDHGTLLIMEGATQADWQHRVPKEYHSREPRVNLTFRTVYPDPRGAPW | 5.7 ± 0.3 | 44.5 ± 0.6 °C | – | 79 ± 5 | 249 ± 1.3 cal/mol·K | – | 4.8 ± 0.4 | ~2 | 1.1 | – | –

Molecules with a lower Kd (m3C substrate), results first:

Kd (m3C substrate) [µM] | Molecule | Tm [1] | Tm ([1]; listed as wt) [°C] | ΔH (enthalpy of unfolding) [1] [kcal/mol] | ΔS (entropy of unfolding) [1] | ΔH (enthalpy of unfolding) ([1]; listed as wt) [kcal/mol] | ΔG^298 [1] [kcal/mol] | weakening of contacts with the DNA substrate relative to wt (m3C substrate) [fold] | reduction in melting temperature relative to wt [1] [°C] | increase in ΔH relative to wt [1] [kcal/mol] | increase in ΔS relative to wt [1] [cal/mol·K]
2.8 ± 0.1 | wt ALKBH3: wild-type human Fe(II)/2OG-dependent dioxygenase ALKBH3 with N-terminal His-tag, expressed in E. coli (protein, UniProt Q96Q83 1-286, looked up, N-terminal His-tag, wild-type human Fe(II)/2OG-dependent dioxygenase ALKBH3 with N-terminal His-tag, expressed in E. coli) Alpha-ketoglutarate-dependent …: MEEKRRRARVQGAWAAPVKSQAIAQPATTAKSHLHQKPGQTWKNKEHHLSDREFVFKEPQQVVRRAPEPRVIDREGVYEISLSPTGVSRVCLYPGFVDVKEADWILEQLCQDVPWKQRTGIREDITYQQPRLTAWYGELPYTYSRITMEPNPHWHPVLRTLKNRIEENTGHTFNSLLCNLYRNEKDSVDWHSDDEPSLGRCPIIASLSFGATRTFEMRKKPPPEENGDYTYVERVKIPLDHGTLLIMEGATQADWQHRVPKEYHSREPRVNLTFRTVYPDPRGAPW | 45.5 °C and 45.6 °C | 45.6 ± 0.7 | 42 | 133 ± 2 cal/mol·K | 43 ± 1 | 3.4 ± 0.1 | – | – | – | –
3.8 ± 0.5 | Y143F ALKBH3: ALKBH3 mutant, Tyr143 replaced with Phe (protein, UniProt Q96Q83 1-286, looked up, variant Y143F) Alpha-ketoglutarate-dependent …: MEEKRRRARVQGAWAAPVKSQAIAQPATTAKSHLHQKPGQTWKNKEHHLSDREFVFKEPQQVVRRAPEPRVIDREGVYEISLSPTGVSRVCLYPGFVDVKEADWILEQLCQDVPWKQRTGIREDITYQQPRLTAWYGELPYTFSRITMEPNPHWHPVLRTLKNRIEENTGHTFNSLLCNLYRNEKDSVDWHSDDEPSLGRCPIIASLSFGATRTFEMRKKPPPEENGDYTYVERVKIPLDHGTLLIMEGATQADWQHRVPKEYHSREPRVNLTFRTVYPDPRGAPW | 43.5 ± 0.4 °C | – | 75 ± 5 | 236 ± 3 cal/mol·K | – | 4.7 ± 0.3 | ~1.4 | 2.1 | 32 | 103

Reference: paper PMC10816986, “The Role of Key Amino Acids of the Human Fe(II)/2OG-Dependent Dioxygenase ALKBH3 in Structural Dynamics and Repair Activity toward Methylated DNA” (International Journal of Molecular Sciences, 2024)
